According to the supplement of paper PMC10567573:

B1: KLHL12 (parent)
chain: SMTTPRCYVGATVLRGRLYAIAGY

Variants of: B1
Assay: protein stability index of a GFP-peptide fusion (GPS, HEK-293T) (PSI 1-6); higher = more stable
Conditions: c terminus: a fixed tail appended
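Note: lentivirally expressed fusions sorted by FACS into six bins by GFP to DsRed ratio, PSI derived from sequencing read proportions per bin multiplied by bin number.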

Protein stability index, by site and new letter:
L14: C 2.48 | F 1.77 | G 1.55 | A 1.79 | D 1.58 | T 2.5 | Y 3.61 | R 1.99 | E 1.93 | W 3.9 | S 1.9 | Q 2.76 | P 2.01 | I 1.99 | K 1.93 | N 1.17 | H 1.62
A11: M 2 | Y 2.99 | N 1.5 | C 2.29 | K 2.19 | S 1.04 | F 2.01 | Q 2.32 | G 1.33 | H 1.8 | T 1.49 | P 2.17 | D 1.42 | R 3.02 | E 1.5
A20: F 2.38 | I 2.3 | K 3.06 | G 2.11 | D 1.48 | C 2.26 | E 1.76 | H 1.18
L18: C 2.93 | D 1.94 | E 1.95 | S 1.36 | Y 2.68 | P 1.87 | V 2.08 | G 1.7 | A 1.49 | K 1.75 | H 2.1 | N 2 | I 1.68 | F 2.67 | M 1.72 | T 1.78 | R 1.9 | Q 1.81
T12: C 2.41 | E 1.1 | M 3.47 | K 2.48 | N 2.87 | P 1.94 | F 2.4 | L 2.77 | Q 1.92 | D 1.85 | I 2.46 | Y 4.56 | A 1.68 | G 1.18 | S 1.63 | R 2.21 | V 3.43
G16: C 2.22 | Y 2.42 | Q 1.45 | W 1.48 | V 3.05 | T 2.04 | D 1.58 | N 1.98 | H 1.98 | E 1.25 | R 2.39 | P 2.19 | S 2.46 | K 1.77 | L 2.05 | I 3.21 | F 2.91
R15: N 1.95 | K 2.57 | I 2.18 | G 2.98 | T 2.62 | W 1.66 | L 2.21 | Q 1.46 | M 1.59 | A 2.33 | P 1.88 | Y 3.51 | H 2.64 | D 2.78 | E 2.11 | V 3.43 | C 3.81 | S 1.63
R17: P 2.42 | C 2.04 | M 3.27 | H 2.17 | G 2.27 | T 1.92 | N 2.17 | A 1.73 | Y 2.26 | S 3.1 | E 1.68 | Q 1.85 | D 1.88 | V 2.35 | F 3.17 | I 3.46
G10: T 3.52 | S 1.02 | P 1.91 | W 1.11 | Y 2.21
Y19: D 1.99 | Q 2.11 | R 1.77 | C 2.91 | I 3.51 | H 1.72 | E 2.19 | A 1.65 | F 2.02 | P 2.22 | T 2.02 | M 1.79 | G 2.81 | S 2 | L 2.15 | W 3.23 | N 2.66 | K 1.79
V13: A 1.83 | K 1.96 | Q 2.85 | P 1.95 | C 1.58 | L 3.54 | I 1.84 | F 1.85 | H 3.25 | T 1.03 | N 1.81 | E 2.69 | D 1.28 | G 2.24 | M 1.73 | S 1.88 | Y 2.03 | R 1.74
